In PMC2921341, “Interaction of Serum- and Glucocorticoid Regulated Kinase 1 (SGK1) with the WW-Domains of Nedd4-2 Is Required for Epithelial Sodium Channel Regulation” (PLoS ONE, 2010):

Assays:
ENaC = test: Amiloride-sensitive short circuit current in FRT epithelia with ENaC: Nedd4-2 dose response with SGK, SGKY298A or GFP; format: cell-based; conditions: FRT epithelia with α-, β-, γENaC, increasing amounts of Nedd4-2 (0–0.2 µg), no SGK; amiloride 10 µM; n = 18
Description: To test the hypothesis that the interaction of the Nedd4-2 WW-domains with the SGK PY motif is required for SGK to influence Nedd4-2 function, we co-expressed α-, β- and γENaC in FRT epithelia with either wild type SGK or SGKY298A along with increasing amounts of Nedd4-2, and measured the amiloride-sensitive short circuit current.
Figure 4 The SGK PY motif is necessary for SGK to inhibit Nedd4-2. Amiloride-sensitive short-circuit sodium current (relative to 0 µg of Nedd4-2) in FRT cells 48 hr after transfection with α-, β- and γENaC and SGK (closed circles) or SGKY298A (open circles) or GFP (closed squares), in the presence of increasing amounts of Nedd4-2, n = 18. Nedd4-2 is expressed as a fraction of the amount of ENaC cDNA. Expression of SGK and SGKY298A was reported in Figure 1B of Snyder et al..
Fischer rat thyroid (FRT) cells were grown on permeable filter supports (Snapwell™, Corning USA or Millicell PCF, both with […] pore size, 12 mm diameter) in F-12 Coon's media with 5% fetal calf serum (Sigma), 100 U/ml penicillin, and 100 µg/ml streptomycin at 37°C. One day after seeding, cells were cotransfected with α-, β- and γENaC (0.07 µg each), 0.6 µg wildtype or mutant SGK, and 0–0.2 µg Nedd4-2 (Fig. 4 only). Total DNA was held constant (1 µg/millicell) using cloning vector DNA. The plasmids were mixed with Lipofectamine 2000 (Invitrogen) or TFX 50 (Promega, Madison, WI; 7.9 µg/millicell) in serum free F12 Coon's media for 15 minutes and transferred to the apical surface of the monolayer. One-six hours later, the apical media was replaced with F-12 Coon's media containing 5% fetal calf serum and amiloride (10 µM). Short-circuit current was measured […] after transfection in modified Ussing chambers connected to a voltage clamp (South Campus Electronics, Dunedin, New Zealand or Warner Instruments). The apical and basolateral surfaces were bathed in (in mM) 135 NaCl, 1.2 CaCl2, 1.2 MgCl2, 2.4 K2HPO4, 0.6 KH2PO4, 10 HEPES, pH 7.4, at 37°C and bubbled with O2. Amiloride-sensitive short-circuit current (Isc-amiloride) was determined as the difference in current with and without amiloride (10 µM) in the apical bathing solution. Data are presented as relative Isc-amiloride (Isc-amiloride relative) that was obtained by normalizing the Isc-amiloride to that of control cells transfected with αβγENaC in the same experiment. Transepithelial resistance (Rt) was monitored by applying repetitive voltage potential pulses (5 mV for 1 sec at 120 sec intervals) across the epithelium.

SGK = test: Co-immunoprecipitation of Nedd4-2 with SGK in COS7 cells; format: binding, human; conditions: Nedd4-2-FLAG and SGK-HA, IP anti-HA, blot anti-FLAG, data not shown
Description: Co-immunoprecipitation was used to characterize an in vitro interaction between Nedd4-2 and SGK. Nedd4-2-FLAG and SGK-HA were co-expressed in COS7 cells, SGK was immunoprecipitated with anti-HA, and the presence of Nedd4-2 in the immunoprecipitates was assessed by western blotting with anti-FLAG. […] We reasoned that SGK would be rapidly turned over in the cells, and this would be enhanced by overexpression of active Nedd4-2, since Nedd4-2 is known to induce degradation of SGK [23]. Therefore we co-expressed a stable form of SGK (ΔN60SGK-HA, lacking the first 60 amino acids of SGK), together with a ligase-dead form of Nedd4-2 (Nedd4-2C821A–FLAG).
(A) ΔN60SGK-HA and Nedd4-2C821A–FLAG were transiently co-expressed, or expressed alone as indicated, in COS7 cells. Complexes were immunoprecipitated with anti-HA antibody. Immunoprecipitates were analyzed by 10% SDS-PAGE and sequential western blotting (IB) with anti-FLAG antibody (Nedd4-2) and anti-HA antibody (ΔN60SGK). Expression of the proteins (5% input) is shown in the bottom panel, n = 3. Either ΔN60SGK-HA (B, E) or SGK-FLAG (C, D) was transiently expressed in COS7 cells. […] Bound SGK was analyzed by immunostaining with anti-FLAG/HA antibody. […]
COS7 cells were co-transfected with ΔN60SGK-HA and Nedd4-2C821A-FLAG. […] The beads were washed four times in T-TBS and analysed by SDS-PAGE and Western blotting with anti-FLAG (Sigma).

B1: Nedd4-2: ubiquitin ligase, Nedd4-family member, human (protein)
chain: MERPYTFKDFLLRPRSHKSRVKGFLRLKMAYMPKNGGQDEENSDQRDDMEHGWEVVDSNDSASQHQEELPPPPLPPGWEEKVDNLGRTYYVNHNNRTTQWHRPSLMDVSSESDNNIRQINQEAAHRRFRSRRHISEDLEPEPSEGGDVPEPWETISEEVNIAGDSLGLALPPPPASPGSRTSPQELSEELSRRLQITPDSNGEQFSSLIQREPSSRLRSCSVTDAVAEQGHLPPPSAPAGRARSSTVTGGEEPTPSVAYVHTTPGLPSGWEERKDAKGRTYYVNHNNRTTTWTRPIMQLAEDGASGSATNSNNHLIEPQIRRPRSLSSPTVTLSAPLEGAKDSPVRRAVKDTLSNPQSPQPSPYNSPKPQHKVTQSFLPPGWEMRIAPNGRPFFIDHNTKTTTWEDPRLKFPVHMRSKTSLNPNDLGPLPPGWEERIHLDGRTFYIDHNSKITQWEDPRLQNPAITGPAVPYSREFKQKYDYFRKKLKKPADIPNRFEMKLHRNNIFEESYRRIMSVKRPDVLKARLWIEFESEKGLDYGGVAREWFFLLSKEMFNPYYGLFEYSATDNYTLQINPNSGLCNEDHLSYFTFIGRVAGLAVFHGKLLDGFFIRPFYKMMLGKQITLNDMESVDSEYYNSLKWILENDPTELDLMFCIDEENFGQTYQVDLKPNGSEIMVTNENKREYIDLVIQWRFVNRVQKQMNAFLEGFTELLPIDLIKIFDENELELLMCGLGDVDVNDWRQHSIYKNGYCPNHPVIQWFWKAVLLMDAEKRIRLLQFVTGTSRVPMNGFAELYGSNGPQLFTIEQWGSPEKLPRAHTCFNRLDLPPYETFEDLREKLLMAVENAQGFEGVD
modifications: left off: FLAG, C-terminal, kept
notes: ubiquitin ligase, Nedd4-family member, human
B1 was tested, and the “inhibition of ENaC by Nedd4-2 in the absence of SGK (in words)” value (ENaC) was “inhibited ENaC in a dose-dependent manner” and the “co-immunoprecipitation with SGK (in words)” value (SGK) was “co-precipitated with SGK but the amount of Nedd4-2 co-precipitated was small”.
